Data from paper PMC9449591, “Therapeutic application of PPE2 protein of Mycobacterium tuberculosis in inhibiting tissue inflammation”.

Molecular target: T1, rPPE2 (Mycobacterium tuberculosis, UniProt P9WI47 1-556)
T1 sequence: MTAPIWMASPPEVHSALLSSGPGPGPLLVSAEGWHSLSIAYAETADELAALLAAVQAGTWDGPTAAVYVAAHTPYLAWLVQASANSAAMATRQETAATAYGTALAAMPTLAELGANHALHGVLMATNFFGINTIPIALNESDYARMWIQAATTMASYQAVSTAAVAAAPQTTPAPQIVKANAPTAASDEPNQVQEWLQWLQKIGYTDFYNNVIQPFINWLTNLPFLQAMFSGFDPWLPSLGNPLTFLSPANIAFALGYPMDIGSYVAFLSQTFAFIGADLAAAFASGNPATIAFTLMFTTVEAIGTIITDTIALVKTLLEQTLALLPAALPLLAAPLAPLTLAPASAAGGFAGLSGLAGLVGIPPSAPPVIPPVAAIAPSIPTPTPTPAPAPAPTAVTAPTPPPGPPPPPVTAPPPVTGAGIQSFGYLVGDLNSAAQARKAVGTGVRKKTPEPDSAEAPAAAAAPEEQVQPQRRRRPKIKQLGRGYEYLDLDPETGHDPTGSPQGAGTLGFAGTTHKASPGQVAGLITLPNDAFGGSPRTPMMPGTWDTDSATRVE
Assay: EMSA; 20 mM HEPES, 0.5 mM DTT, 0.5 mM EDTA, 5% glycerol; […]; 30 min at room temperature; […]
Details: protein: recombinant; tags: His (pRSET-A vector, TALON purified); label: 32P 5' end label (T4 PNK)

B1: scf core promoter 60-bp EMSA oligonucleotide (dsDNA)
DNA 1: CGCGTGCGGGCGGGAGGGAGCTGTATAAAAAGCGCTGGCGGCGCAGCAGCCGGGGCTTCATTTGCG
DNA 2: CGCAAATGAAGCCCCGGCTGCTGCGCCGCCAGCGCTTTTTATACAGCTCCCTCCCGCCCGCACGCG
B1: binds.
